According to PMC10724065, “Evolution of a plant growth-regulatory protein interaction specificity” (Nature Plants, 2023):

T1: His-tagged GAI (Arabidopsis thaliana, UniProt Q9LQT8 1-533)
T1 construct: GAI of A. thaliana; also called His-GAI; His-tagged AtGAI; source: E. coli BL21, purified (Ni-NTA agarose)
T1 sequence (looked up): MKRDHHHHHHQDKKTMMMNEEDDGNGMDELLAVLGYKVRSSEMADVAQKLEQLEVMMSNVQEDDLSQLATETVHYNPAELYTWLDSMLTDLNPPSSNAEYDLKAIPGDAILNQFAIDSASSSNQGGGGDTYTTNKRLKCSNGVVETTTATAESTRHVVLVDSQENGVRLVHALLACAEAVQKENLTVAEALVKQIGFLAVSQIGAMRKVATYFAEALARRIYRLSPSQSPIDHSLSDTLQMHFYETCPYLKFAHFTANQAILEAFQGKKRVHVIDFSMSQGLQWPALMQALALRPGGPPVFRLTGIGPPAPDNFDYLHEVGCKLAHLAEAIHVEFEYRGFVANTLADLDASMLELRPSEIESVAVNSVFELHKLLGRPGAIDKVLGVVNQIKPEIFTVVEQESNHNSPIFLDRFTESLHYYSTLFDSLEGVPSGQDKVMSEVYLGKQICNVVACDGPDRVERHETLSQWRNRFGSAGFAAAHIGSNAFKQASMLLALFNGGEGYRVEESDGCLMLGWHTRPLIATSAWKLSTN


Key:
[1] = target: Marchantia polymorpha MpDELLA (yeast prey fusion); assay: yeast 2-hybrid; settings: parent: est. 180; read off a plot
[2] = target: A. thaliana GAI (yeast prey fusion) (UniProt Q9LQT8); assay: yeast 2-hybrid; settings: parent: est. 37; read off a plot
His-tagged GAI [3] = target: T1, His-tagged GAI; assay: pull-down; 5 μg His-GAI/gai held on Ni-NTA agarose, 5 μg MBP-SLY1/sly1 added, 1 h at 4 °C, five washes, immunoblot with anti-His and anti-MBP; settings: both partners purified
His-tagged GAI [4] = target: T1, His-tagged GAI; assay: pull-down; 5 μg His-GAI held on Ni-NTA agarose, 5 μg MBP-SLY1/sly1 added with an equal amount of GST-GID1C and 0.1 mM GA3, 1 h at 4 °C, immunoblot with anti-His, anti-MBP and anti-GST; settings: both partners purified

Molecule	response (β-galactosidase units) [1]	binding result (His-tagged GAI [3])	also measured
Marchantia polymorpha MpSLY1 (yeast bait fusion) H147K	130		
Marchantia polymorpha MpSLY1 (yeast bait fusion) R118P	50		
Marchantia polymorpha MpSLY1 (yeast bait fusion) S149T	100		
Marchantia polymorpha MpSLY1 (yeast bait fusion) Y108F			response (β-galactosidase units) [2]: 17
MBP-tagged AtSLY1 (natural protein, Arabidopsis thaliana, UniProt Q9STX3 1-151, looked up, AtSLY1 of A. thaliana; also called MBP-SLY1; source: E. coli BL21, purified (amylose resin)) MKRSTTDSDLAGDAHNETNKKMKSTEEEEIGFSNLDENLVYEVLKHVDAKTLAMSSCVSKIWHKTAQDERLWELICTRHWTNIGCGQNQLRSVVLALGGFRRLHSLYLWPLSKPNPRARFGKDELKLTLSLLSIRYYEKMSFTKRPLPESK		binds	
MBP-sly1^gar2-1 (E138K) (natural protein, Arabidopsis thaliana, UniProt Q9STX3 1-151, looked up, AtSLY1 of A. thaliana with E138K; cloned into pMAL-c2X; also called MBP-tagged Atsly1^gar2-1; source: E. coli BL21, purified (amylose resin)) MKRSTTDSDLAGDAHNETNKKMKSTEEEEIGFSNLDENLVYEVLKHVDAKTLAMSSCVSKIWHKTAQDERLWELICTRHWTNIGCGQNQLRSVVLALGGFRRLHSLYLWPLSKPNPRARFGKDELKLTLSLLSIRYYKKMSFTKRPLPESK		binds	
MBP-tagged Atsly1^H104Y (natural protein, Arabidopsis thaliana, UniProt Q9STX3 1-151, looked up, AtSLY1 of A. thaliana with H104Y; cloned into pMAL-c2X; source: E. coli BL21, purified (amylose resin)) MKRSTTDSDLAGDAHNETNKKMKSTEEEEIGFSNLDENLVYEVLKHVDAKTLAMSSCVSKIWHKTAQDERLWELICTRHWTNIGCGQNQLRSVVLALGGFRRLYSLYLWPLSKPNPRARFGKDELKLTLSLLSIRYYEKMSFTKRPLPESK		binds	
GST-GID1C (receptor, Arabidopsis thaliana, UniProt Q940G6 1-344, looked up, GID1C, gibberellin receptor of A. thaliana; Used together with 0.1 mM GA3; also called GST-AtGID1C; source: E. coli BL21, purified (glutathione beads)) MAGSEEVNLIESKTVVPLNTWVLISNFKLAYNLLRRPDGTFNRHLAEFLDRKVPANANPVNGVFSFDVIIDRQTNLLSRVYRPADAGTSPSITDLQNPVDGEIVPVIVFFHGGSFAHSSANSAIYDTLCRRLVGLCGAVVVSVNYRRAPENRYPCAYDDGWAVLKWVNSSSWLRSKKDSKVRIFLAGDSSGGNIVHNVAVRAVESRIDVLGNILLNPMFGGTERTESEKRLDGKYFVTVRDRDWYWRAFLPEGEDREHPACSPFGPRSKSLEGLSFPKSLVVVAGLDLIQDWQLKYAEGLKKAGQEVKLLYLEQATIGFYLLPNNNHFHTVMDEIAAFVNAECQ			binding result (His-tagged GAI [4]): binds
